This note sets out measurements from article PMC8967028.

For this assay, the target named is SARS-CoV-1 spike (S) receptor binding domain (SARS-CoV-1). The experiment in a line: SPR.

With parental VHH-72-Fc (Fc fusion), the koff came to 0.00021 s⁻¹.
